# How the values were obtained:
# cynomolgus MSLN-His-Avi [1] = target: T1, cynomolgus MSLN-His-Avi (cynomolgus, single biotin (BirA) in the biotinylated form); assay: SPR steady-state analysis, cMSLN-His-Avi coated at about 50 RU
# T1 construct: Monomeric, made in HEK293-6E; also called cMSLN-His-Avi; cyno MSLN-His-Avi
# T1 chain: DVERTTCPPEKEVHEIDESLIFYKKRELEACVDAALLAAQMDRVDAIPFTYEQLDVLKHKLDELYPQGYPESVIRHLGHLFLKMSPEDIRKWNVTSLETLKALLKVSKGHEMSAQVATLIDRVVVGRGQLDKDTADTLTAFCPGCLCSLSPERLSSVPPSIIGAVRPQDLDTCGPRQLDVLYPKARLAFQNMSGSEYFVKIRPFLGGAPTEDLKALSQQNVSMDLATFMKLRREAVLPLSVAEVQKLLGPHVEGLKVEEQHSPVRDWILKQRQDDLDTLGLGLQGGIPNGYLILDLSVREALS
# Protocol: The association time was 1000 sec to steady state and the dissociation time was 30 sec. Running buffer was HBS-EP (GE Healthcare BR100188). Flow cells were regenerated by injecting Glycine-HCl pH1.5 at a flow rate of 30 μl/min for 30 seconds. Data were analysed by double referencing against a flow cell which was intentionally left blank (no antigen coating). Steady state affinity model was used to analyse kinetic data using the BiaEvaluation software version 3.2.
# [2] = target: T2, cell surface human mesothelin (MSLN) (human, UniProt Q13421 296-598); assay: flow cytometry, NCI-H226 cells + 20 nM soluble MSLN
# T2 construct: whole, on cells; also called cell surface MSLN
# T2 sequence (Q13421 other isoform, or with tags, fused parts or gaps limits assumed): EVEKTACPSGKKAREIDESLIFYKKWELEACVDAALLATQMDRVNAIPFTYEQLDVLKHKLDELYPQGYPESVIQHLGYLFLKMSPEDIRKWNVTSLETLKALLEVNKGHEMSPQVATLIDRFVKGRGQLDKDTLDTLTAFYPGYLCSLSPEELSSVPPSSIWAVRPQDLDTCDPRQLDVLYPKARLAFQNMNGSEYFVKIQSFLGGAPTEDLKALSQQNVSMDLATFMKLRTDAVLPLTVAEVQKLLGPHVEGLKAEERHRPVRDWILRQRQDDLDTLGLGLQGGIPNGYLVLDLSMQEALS
# Protocol: (§1) Cells were centrifuged at 1200 rpm for 3 min and resuspended in ice cold FACS buffer made up of DPBS (Life Technologies, 14190169) and 1% BSA (Sigma-Aldrich, A7906) at 2×10⁶ cells/ml and 50 μl per well was seeded in a 96-well V-bottom plate (Costar, 3894). All mAbs tested were diluted in FACS buffer in 120 μl at a concentration range of 0.01-200 nM (4-fold dilutions). The NCI-H226 cells were then centrifuged, supernatant removed and cells resuspended in 100 μl of each mAb dilution and incubated at 4° C. for 45 min. Cells were washed twice by centrifugation with 150 μl FACS buffer, resuspended in 100 μl containing goat anti-human IgG (γ-chain specific) F(ab′)2 fragment-R-Phycoerythrin antibody (Sigma, P8047) diluted 1:1000 in FACS buffer and incubated at 4° C. for 45 min. The cells were washed once with 150 μl FACS buffer and then with 150 μl DPBS, resuspended in 150 μl DPBS containing DAPI (Biotium, 40043) at 1:10.000 and read on the BDCantoll or iQue (Intellicyt). Data was analysed using FlowJo v10 to determine the signal geometric mean for PE for live cells in each well.
# (§2) Cell binding assays using OVCAR-3 cells were performed similarly to the assays described in section 2.4. The effect of the presence of soluble MSLN was tested by pre-incubating the antibodies in the presence or absence of soluble MSLN before mixing with cells and determining if the pre-incubation affected binding to MSLN on the cell surface. […] 60 μl from each well was then added to either FACS buffer alone or to FACS buffer containing 60 μl of 40 nM recombinant hMSLN (R&D systems, 3265-MS-050) (to give a final concentration of 20 nM hMSLN) and pre-incubated at room temperature for 1 hour before 100 μl was added to the cells. Bound antibody was detected using goat anti-human anti-Fcγ Alexa-Fluor 488 (Jackson Immunoresearch, 109-546-098).
# (§3) The method used was exactly as described in section 3.1.4.
# human MSLN-His-Avi [3] = target: T3, human MSLN-His-Avi (human, UniProt Q13421 296-598, single biotin (BirA) in the biotinylated form); assay: SPR (Biacore), mAb^2 captured on Protein G, MSLN in solution injected
# T3 construct: Monomeric, made in HEK293-6E; Used both immobilised and in solution; also called hMSLN-His-Avi; biotinylated hMSLN-His-Avi
# T3 sequence (Q13421 other isoform, or with tags, fused parts or gaps): as the sequence (Q13421 other isoform, or with tags, fused parts or gaps limits assumed) above
# cynomolgus MSLN-His-Avi [4] = target: T1, cynomolgus MSLN-His-Avi; assay: as above
# [5] = target: T2, cell surface human mesothelin (MSLN); assay: flow cytometry, NCI-H226 cells
# Protocol: as §1, §2, §3
# cynomolgus MSLN-His-Avi [6] = target: T1, cynomolgus MSLN-His-Avi; assay: SPR (see Table 4)
# human MSLN-His-Avi [7] = target: T3, human MSLN-His-Avi; assay: SPR (Biacore), MSLN immobilised, mAb^2 injected
# Summary of the method: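 Human MSLN-His-Avi amine-coupled to CM5 chip at about 200 RU, blank reference cell subtracted. Anti-MSLN mAb² (supernatant or purified) at about 50 nM in HBS-EP+ injected 2.5 min at 30 μl/min, 2.5 min dissociation; 10 mM glycine pH 1.5 regeneration.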
# human MSLN-His-Avi [8] = target: T3, human MSLN-His-Avi; assay: ratio of the two SPR KD
# Summary of the method: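 mAb² clones were tested on two SPR set-ups. In the first, human MSLN-His-Avi was amine-coupled to CM5 (~200 RU) and ~50 nM antibody was injected. In the second, clones were captured on Protein G (~100 RU) and human or cyno MSLN (1000-0.051 nM, 3-fold) was flowed in HBS-EP with 900 mM […] for 5 min association/5 min dissociation. The value is the ratio of the two KD.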
Binder,fold difference of binding to cyno MSLN against human MSLN (cynomolgus MSLN-His-Avi [1]) [fold],EC50 [2] [nM],Emax (MFI) [2] [MFI],Kd (human MSLN-His-Avi [3]) [nM],Kd (cynomolgus MSLN-His-Avi [4]) [nM],EC50 [5] [nM],Emax (MFI) [5] [MFI],fold lower affinity for cyno MSLN than for human MSLN (cynomolgus MSLN-His-Avi [6]) [fold],Kd (human MSLN-His-Avi [7]) [nM],Ratio of KD in solution/immobilised for human MSLN-His-Avi (human MSLN-His-Avi [8])
"FS22-172-003-AA/FS28-256-271 mAb^2 (bispecific antibody, human IgG1, kappa, L234A L235A) heavy: EVQLLESGGGLVQPGGSLRLSCAASGFTFTHTYMSWVRQAPGKGLEWVSAISPTYSTTNYADSVKGRFTISRDNNKNTLYLQMNSLRAEDTAVYYCARYNAYHAALDYWGQGTLVTVSSASTKGPSVFPLAPSSKSTSGGTAALGCLVKDYFPEPVTVSWNSGALTSGVHTFPAVLQSSGLYSLSSVVTVPSSSLGTQTYICNVNHKPSNTKVDKKVEPKSCDKTHTCPPCPAPEAAGGPSVFLFPPKPKDTLMISRTPEVTCVVVDVSHEDPEVKFNWYVDGVEVHNAKTKPREEQYNSTYRVVSVLTVLHQDWLNGKEYKCKVSNKALPAPIEKTISKAKGQPREPQVYTLPPSRDELPYIIPPYNQVSLTCLVKGFYPSDIAVEWESNGQPENNYKTTPPVLDSDGSFFLYSKLTVGADRWLEGNVFSCSVMHEALHNHYTQKSLSLSPG light: EIVLTQSPGTLSLSPGERATLSCRASQSVSSSYLAWYQQKPGQAPRLLIYGASSRATGIPDRFSGSGSGTDFTLTISRLEPEDFAVYYCQQTVPYPYTFGQGTKVEIKRTVAAPSVFIFPPSDEQLKSGTASVVCLLNNFYPREAKVQWKVDNALQSGNSQESVTEQDSKDSTYSLSSTLTLSKADYEKHKVYACEVTHQGLSSPVTKSFNRGEC",≤ 3,–,–,–,–,–,–,–,–,–
"FS22-053-008-AA/FS28-024 mAb^2 (bispecific antibody, human IgG1, kappa, L234A L235A, V domains shown, also called FS28-024 (in FS22-053-008-AA mAb^2 format); FS28-024 (in CD137 mAb2 format)) VH: EVQLLESGGGLVQPGGSLRLSCAASGFTLSYSSMSWVRQAPGKGLEWVSFITPSTGYTHYADSVKGRFTISRDNSKNTLYLQMNSLRAEDTAVYYCARRALTFDYWGQGTLVTVSS VL: EIVLTQSPGTLSLSPGERATLSCRASQSVSSSYLAWYQQKPGQAPRLLIYGASSRATGIPDRFSGSGSGTDFTLTISRLEPEDFAVYYCQQASSYPLTFGQGTKVEIKR",–,5.04,1.02e+06,46.5,240,1.47,981000,~5,0.39,119
